Test results: publication PMC8063739

Molecular target: 11th type II cohesin module of the primary scaffoldin ScaA1 of B. cellulosolvens (BcCohScaA1_(11)) (Bacteroides (Pseudobacteroides) cellulosolvens) (UniProt Q9FDJ9)
Experiment: ITC; 308 K; Doc constructs in the cell titrated with 28 injections of 10 μl BcCohScaA1_(11); single-site model

Sequence of UniProt Q9FDJ9 (Q9FDJ9 entry or part of it): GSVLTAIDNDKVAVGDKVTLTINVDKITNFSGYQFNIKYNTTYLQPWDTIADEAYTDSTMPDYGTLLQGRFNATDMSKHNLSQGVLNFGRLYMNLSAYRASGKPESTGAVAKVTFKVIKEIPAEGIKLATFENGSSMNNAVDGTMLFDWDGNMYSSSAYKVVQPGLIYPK

Row | Ka | dH | stoichiometry N | Substance
1 | 1.11e+07 M⁻¹ | -16 kcal/mol | 0.98 | TrxA-BcDocCel48 mutant M1 (M17S/A18D) (domain or fragment)
2 | 58400 M⁻¹ | -60.9 kcal/mol | 1.01 | TrxA-BcDocCel48 mutant M1 + F60A (domain or fragment)
3 | 1.41e+06 M⁻¹ | -17.7 kcal/mol | 0.99 | TrxA-BcDocCel48 mutant M2 (M50S/A51D) (domain or fragment)
4 | 445000 M⁻¹ | -13.2 kcal/mol | 1.01 | TrxA-BcDocCel48 mutant M2 + F27A (domain or fragment)
5 | 1.2e+06 M⁻¹ | -9.3 kcal/mol | 1 | TrxA-BcDocCel48 mutant M21A/I54A (domain or fragment)
6 | 136000 M⁻¹ | -14.1 kcal/mol | 0.99 | TrxA-BcDocCel48 mutant N16A/N49A (domain or fragment)
7 | 1.35e+06 M⁻¹ | -8.86 kcal/mol | 0.99 | TrxA-BcDocCel48 mutant Q25A/Q58A (domain or fragment)
8 | 3.31e+07 M⁻¹ | -15.2 kcal/mol | 0.98 | Wild-type BcDocCel48 fused to TrxA (TrxA-BcDocCel48) (domain or fragment)
